The values below come from article PMC4355161.

The target of experiment [1] is 0/20 Cy3 DNA(−25) nucleosomes. As to the kind of experiment: FRET or BRET.
For experiment [2], the target named is 0/20 Cy3 DNA(+20) nucleosomes. As to the kind of experiment: FRET or BRET.
Experiment [3] deals with 0/20 H2A T11C-Cy3 nucleosomes (UniProt P06897). As to the kind of experiment: FRET or BRET. A general note: Bioluminescence resonance energy transfer reports proximity on the nanometre scale.
Experiment [4] concerns the target 0/20 Cy3 DNA(−25) nucleosomes. Briefly: FRET or BRET. This is another data set of the same source.
Experiment [5] has as its target 0/20 Cy3 DNA(+20) nucleosomes. Briefly: FRET or BRET. This is another data set of the same source.
The target of experiment [6] is 0/20 H2A T11C-Cy3 nucleosomes (UniProt P06897). Briefly: FRET or BRET. This is another data set of the same source.
Experiment [7] has as its target 30/30 nucleosomes labeled with Cy3 on H4 A15C (UniProt P62799). As to the kind of experiment: other fluorescence titration.

Where two headings read alike, the source gives them in different places.

On to “SNF2h A930C-Cy5 (from UniProt O60264 1-729; O60264 730-1052) (enzyme)”, for which the FRET ratio in experiment [1] came to 0.49; in experiment [2], 0.34; in experiment [3] it was 0.56; in experiment [4], 0.4; in experiment [5] it was 0.51; in experiment [6] it was 0.39.
Regarding “wild type SNF2h (from UniProt O60264 1-1052) (enzyme)”, in experiment [7], the fold preference over core nucleosomes came to 4.9 fold and the fold tighter binding than to core nucleosomes is 2.1 fold.
